In patent US11639389B2 one finds Kd data, which are given here for one substance.

For this assay, the target named is Purified Fc fusion protein of Human CTLA4 (human). Nature of the assay: BLI (Fortebio), CTLA4-Fc immobilized by amine reactive chemistry. On the technique in general: BLI is a label-free optical method that tracks binding on a fibre tip over time.

Broadly, the Kd is the concentration at which binding is half-saturated. Higher therefore signals lower affinity. “Anti CTLA4 IgG (BioLegend A3.B10.G1) (antibody)” showed a Kd of 2 nM.
